# According to paper PMC6005794, “Experimental and bioinformatic approach to identifying antigenic epitopes in human α- and β-enolases” (Biochemistry and Biophysics Reports, 2018):
# Read-outs that look alike come from different tables or passages of the source.
# How the values were obtained:
# [1] = cited from earlier work
# Text: The ion-exchange chromatography was used to purify both α- and β-enolases. The method employed in this work takes advantage of different isoelectric point values calculated for human α- and β-enolases (7.38 and 7.72, respectively), muscle-specific enzymes from rat (7.45) and pig (8.8–9.0), [21]. The summary of human enolase isoenzymes purification is presented in Supplementary Table 1. The purity of the enolase preparations was examined at every purification step by SDS-PAGE and is shown on Supplementary Fig. S1.
# [2] = test system: anti-β-enolase antibodies; assay: ELISA test with pin-tethered peptides; format: binding, rabbit; conditions: relative to N^193VIKEKYGKDATN^205-GG-pin
# Protocol: The peptides corresponding to predicted epitopes were synthesized using NCP Block of 96 hydroxypropylmethacrylate pins (MIMOTOPES, Clayton, Victoria, Australia) according to earlier described protocol. The synthesis was performed in 96-well plates, following the one-pin – one-peptide approach. Each pin was submerged in 100 μl of the solution containing 60 mM F-moc amino acid and an equimolar amount of diisopropylcarbodiimide and N-hydroxybenzotriazole as coupling reagents. Each coupling cycle lasted 4 h., and to assess the completion of the coupling reaction; pins were tested with 10 mM bromophenol blue for the presence of free amino groups. Peptides were deprotected and pins washed with MeOH, 0.5% acetic acid in MeOH, MeOH, dried, and stored at − 20 °C. […]
# The TBST soaked pins were transferred to a 96-well plate filled with 200 μl of 1% BSA in TBST and incubated for 60 min at room temperature. […] The attached antibodies were detected after incubation of the pins with goat-anti-human IgG-alkaline phosphatase (AP) conjugate (ICN Biomedicals, Aurora, Ohio, USA, diluted according to the manufacturer's recommendations). The AP activity was measured to determine the level of the bound conjugate. […] The enzymatic reaction was stopped by removal of pins from the plate, and the amount of released p-nitrophenol was measured at 406 nm in a plate reader (PerkinElmer). […]
# [3] = storage stability (enolase activity); format: physicochemical; conditions: 7.5 mM imidazole-HCl pH 6.8, 2.5 mM MgSO4, 50 mM NaCl, 50% glycerol, 4 °C
# Protocol: At all stages of the enzyme purification, the magnesium sulfate and temperature set at 4 °C were used to prevent the loss of the enolase activity. Magnesium ions are essential for both catalysis and stability of the enolase dimer, [39]. Purification of β-enolase from human muscle tissue was performed according to the procedure described earlier. Briefly, 110 g of frozen striated muscle was homogenized in deionized water containing 3 mM MgSO4 and protease inhibitors PMSF (phenylmethylsulfonyl fluoride) and aprotinin (2 µg/ml). Homogenization was performed in PT3100D homogenizer (DanLab, Poland) at 4 °C for 10 min. The crude protein extract was incubated at 53–54 °C for 3 min, then cooled to 4 °C and denatured proteins removed by centrifugation at 9000 g for 45 min. The supernatant was fractionated with ammonium sulfate at 4 °C, by adding solid salt in small portions and by stirring gently. The mixture was left overnight at 4 °C after reaching 60% saturation of (NH4)2SO4 and precipitated proteins were centrifuged at 9000 g for 45 min and discarded. Protein precipitation was continued by adding solid (NH4)2SO4 up to 80% saturation, and after overnight storage at 4 C the precipitated proteins were centrifuged. The pellet was dissolved in 20 mM Tris-HCl buffer pH 9.0, containing 3 mM MgSO4 and 1 mM β − mercaptoethanol and dialyzed against this buffer. […]
# [4] = muscle-specific enzymes from rat and pig
Molecule,isoelectric point ([1]; calculated for human enolases),"isoelectric point [1, 4]",other results
human α-enolase: α-enolase purified from human kidney,7.38,–,–
substitution of E^197 in N^193VIKEKYGKDATN^205-GG-pin with alanine: α-enolase epitope 2 peptide with E^197 substituted with alanine,–,–,loss of immunological activity on substitution [2]: 70%
"human β-enolase: β-enolase purified from human skeletal muscle (protein, UniProt P13929 2-434, looked up) Beta-enolase: AMQKIFAREILDSRGNPTVEVDLHTAKGRFRAAVPSGASTGIYEALELRDGDKGRYLGKGVLKAVENINNTLGPALLQKKLSVVDQEKVDKFMIELDGTENKSKFGANAILGVSLAVCKAGAAEKGVPLYRHIADLAGNPDLILPVPAFNVINGGSHAGNKLAMQEFMILPVGASSFKEAMRIGAEVYHHLKGVIKAKYGKDATNVGDEGGFAPNILENNEALELLKTAIQAAGYPDKVVIGMDVAASEFYRNGKYDLDFKSPDDPARHITGEKLGELYKSFIKNYPVVSIEDPFDQDDWATWTSFLSGVNIQIVGDDLTVTNPKRIAQAVEKKACNCLLLKVNQIGSVTESIQACKLAQSNGWGVMVSHRSGETEDTFIADLVVGLCTGQIKTGAPCRSERLAKYNQLMRIEEALGDKAIFAGRKFRNPKAK",7.72,–,storage stability [3]: several months without loss of activity
"muscle-specific enzyme from rat: rat muscle β-enolase (protein, UniProt P15429 2-434, looked up) Beta-enolase: AMQKIFAREILDSRGNPTVEVDLHTAKGRFRAAVPSGASTGIYEALELRDGDKSRYLGKGVLKAVEHINKTLGPALLEKKLSVVDQEKVDKFMIELDGTENKSKFGANAILGVSLAVCKAGAAEKGVPLYRHIADLAGNPDLVLPVPAFNVINGGSHAGNKLAMQEFMILPVGASSFKEAMRIGAEVYHHLKGVIKAKYGKDATNVGDEGGFAPNILENNEALELLKTAIQAAGYPDKVVIGMDVAASEFYRNGKYDLDFKSPDDPARHISGEKLGELYKSFIKNYPVVSIEDPFDQDDWATWTSFLSGVDIQIVGDDLTVTNPKRIAQAVEKKACNCLLLKVNQIGSVTESIQACKLAQSNGWGVMVSHRSGETEDTFIADLVVGLCTGQIKTGAPCRSERLAKYNQLMRIEEALGDKAVFAGRKFRNPKAK",–,7.45,–
"muscle-specific enzyme from pig: pig muscle β-enolase (protein, UniProt Q1KYT0 2-434, looked up) Beta-enolase: AMQKIFAREILDSRGNPTVEVDLHTAKGRFRAAVPSGASTGIYEALELRDGDKSRYLGKGVLKAVEHINKTLGPALLEKKLSVVDQEKVDKFMIELDGTENKSKFGANAILGVSLAVCKAGAAEKGVPLYRHIADLAGNPDLVLPVPAFNVINGGSHAGNKLAMQEFMILPVGASSFREAMRIGAEVYHHLKGVIKGKYGKDATNVGDEGGFAPNILENNEALELLKTAIQAAGYPDKVVIGMDVAASEFYRNGKYDLDFKSPDDPSRHITGEKLGELYKSFIKNYPVVSIEDPFDQDDWKTWTSFLSGVNIQIVGDDLTVTNLKRIAQAVEKKACNCLLLKVNQIGSVTESIQACKLAQSNGWGVMVSHRSGETEDTFIADLVVGLCTGQIKTGAPCRSERLAKYNQLMRIEEALGDKAVFAGRKFRNPKAK",–,8.8–9.0,–
